Measured values published in a protein production outcome set (Wang et al. 2014).

Test: label from the status in PepcDB records

With “MSGSLARAAARPNAPTLVDEATVDDFIAHSGKIVVLFFRGDAVRFPEAADLAVVLPELINAFPGRLVAAEVAAEAERGLMARFGVAVCPSLAVVQPERTLGVIAKIQDWSSYLAQIGAMLAEVDQPGEAELQS” the protein production was “not failed”.
With “MSGSSHYPVANWNLDGIVSGLRGARQEWRGPRGRLREESESGVREFPSQESLRDIMRQLFGALFPMRLGPIDLREEVEDFYVGHTIGAALDALLHQVCLELQHLGRDDPQPYGQVLERAVDIVRRFGAELPAVRKALDLDVTAAYQGDPAARSVDEVLLCYPGVTAMIHHRLANVLYRLGAPMLARIVAEIAHSDTGIDIHPGATIGRSFFIDHGTGVVIGETAIIGERVRLYQMVTLGAKRFPPGENGELKKGLPRHPIIEDDVVIYAGATILGRITIGQGSTIGGNVWLTHSVPPNSTVTQAGAINDMPDCGLGGLEHHHHHH” the protein production was “failed”.
For “MSGTKLEDSPPCRNWSSASELNETQEPFLNPTDYDDEEFLRYLWREYLHPKEYEWVLIAGYIIVFVVALIGNVLVCVAVWKNHHMRTVTNYFIVNLSLADVLVTITCLPATLVVDITETWFFGQSLCKVIPYLQTVSVSVSVLTLSCIALDRWYAICHPLMFKSTAKRARNSIVIIWIVSCIIMIPQAIVMECSTVFPGLANKTTLFTVCDERWGGEIYPKMYHICFFLVTYMAPLCLMVLAYLQIFRKLWCRQIPGTSSVVQRKWKPLQPVSQPRGPGQPTKSRMSAVAAEIKQIRARRKTARMLMVVLLVFAICYLPISILNVLKRVFGMFAHTEDRETVYAWFTFSHWLVYANSAANPIIYNFLSGKFREEFKAAFSCCCLGVHHRQEDRLTRGRTSTESRKSLTTQISNFDNISKLSEQVVLTSISTLPAANGAGPLQNW”, the protein production was “failed”.
In the case of “MSGTLFTYRRKVDFGDCDSARIYFTPRAVDYAVEAVEAWFGDVLGVSWADLFLRHDLDVTFVRMGCEYFRPVIADQTVHVRVRATAVDRSSVTFSAAGEDDSGGVFFRATLVAQFRAGRNRAPVPIPPRYRERMEDCLEQADGKSGTVAQRVGGEPFLSRLQSDGVHFTVRRRVVYGDCTLSGTVYAPRLFNYAVEAVGEWYRETLGISWREQCIRLRGAPFREVWCERLAPLVPGQVITMTVGIPRLGKSSIGYEVVGYDDRGEPCFQVGMSACYISEETGSIKAIPFPDDMRSRILAYQVLCDQGVIPATAS”, the protein production is reported as “failed”.
For “MSHAKGFKKDYYGGTLMALVGLAAVMAGLQYHTGSLSHMGPGFFPVAVGALLAFVGVLIAVSARNDEPKEDKPSGHGHSHAAPDLRGTVCIVLGTLAFLLFGKYGGMIPATFAIVFISALGDRSNSIKQAFLLSIAMCVIAAVVFSWALQLQLPMFTWGA”, the protein production was “failed”.
For “MSHAVANKTETEAAPNSSLKQSAAPQPANSHDAKLLNGTLARTNGLTHAASVATSSSGSYGSSSAAGSNAGSGGPTSSASLSIAAGVASSTALPLPPSSNGLQMPYERFRADDTSYVPIAQFYAGRSVFITGGTGFMGKVLVEKLLRSCPEIRNIYLLIRPKRGQEVSARLTELLNAPLFESLRQEKPKELSKVIPISGDITSEELGISEKDQNLLCRNVSVVFHSAATVKFDEKLKLSVTINMLGTKRLVELCHRMLSLDALIHVSTAYCNCDRTDVSEVIYAPPYNPDDIISLINWLPEDILDQLTPRLIGKRPNTYTFTKALAEHMLLKEAGNLPVAIVRPSIVTASLNEPFAGWVDNFNGPTGLVSALAKGMFRTMMCEKNYVADMVPVDIVINLMIAAAWRTATRKSNNLLIYNCCTGQRNPIIWSEFVKHAMTSVRKHPLEGCLWYPTGDLRMNRPMNTLNCIAKHFLPAYILDGVARIMGKKPFVVNVQNKIAKAVECLEYFATRQWRFKDDNVHALLHTLSPKDREIFVFDVRHINWDKYVERYVLGFREFLFKQRPESLPASRKRMLRLYYLHQLTKLVAVLLTWRFLMSRSKRLNDLWSSFLENALRMARLIPFL”, the protein production was “failed”.
With “MSHAVVSWTLWSLALYLTLPYLSSAIEHSINNPLFVGPFYIISSGIGSLSLLALERHVKLLSTIGLALSGIGLLMIGVDANQLLTIIGFIFYNLYWLSVPIFYYLLSEEEGSLTKAWSISMVPAIIMPVIAGILIRWGEIIIFILGGLLQLTSSIILILVKHRIDEDHMVGYDVGIPKNVIFVVLPLSIVMPFLYLDVRESLIWVIYSSGQILGILMSWFLWKSKNAIMLSLIIFSGIIFSVFSPIGILFYGSSEALVALGIEKSRPSLMKHAIKVALTEALVWTVGYAVGSLLYYISGFLPFIYSSLVSLILAMIIGLFSSLTFNSVISKNPLKNTIPFKIVRYLTLREGIFPYFKIS” the protein production was “failed”.
In the case of “MSHEVDELFDAEMLQQAKTLSAFMSVNSERLPEAGVIIESIGAHNYEDKLSYRIENTEELLLMQTEGAPDASAFEFIPGFSVKRVKDELWHAFGLENATGQRILMLQEDGFRSELRMDLTVDTVIPILLILPFMLWLGWWTINRNFSSFNRLAGELRRKRADDYTNFVEDNDREEVALVKRSLNHYINRIEQTFLREKRFSADAAHELRTPLASLKAQIQSRLGSATSEQQNELQPLLDSTERLVKLVESLLQLSKAELPPEQLKQVNVASVLRQVLADQYVAAESKGLSYHAQLPTVFQQTSDESYLYLLFANALDNAIKYAVPGSHIGIEVTENQIFVCNRVAADHVIDIDRITERFYRGKQLDVEGSGLGLSIVRNLAEQLGVQINFRHIDDEFCFIVTFDTDQ”, the protein production is reported as “failed”.
For “MSHFVHPNALCESDTIGEGTRVWAFAHVLPGARLGRDCNICDGVFIESDVVVGDRVTVKCGVQLWDGVRLGDDVFVGPNATFTNDLFPRSRVYPEKFLGTVVESGASIGANATILAGTTIGSGAMIGAGAVVTRSVPPNAIVVGNPARIVGYVSDKDATGSAPSPTGQGITDTAVPGVKLYRMPSFADMRGSLSVGDFETFLPFNAKRYFLVYGVPTQETRGEHAHKRCHQFLICVSGSVRVLADDGTRRIDVELNSPSQGIHLPPMIWGTQYKYSKDAVLLVFASESYDTDEYIRDYSDFKSLANAAR”, the protein production was “failed”.
In the case of “MSHIQRETSCSRPRLNSNLDADLYGYRWARDNVGQSGATIYRLYGKPNAPELFLKHGKGSVANDVTDEMVRLNWLTAFMPLPTIKHFIRTPDDAWLLTTAIPGKTAFQVLEEYPDSGENIVDALAVFLRRLHSIPVCNCPFNSDRVFRLAQAQSRMNNGLVDASDFDDERNGWPVEQVWKEMHKLLPFSPDSVVTHGDFSLDNLIFDEGKLIGCIDVGRVGIADRYQDLAILWNCLGEFSPSLQKRLFQKYGIDNPDMNKLQFHLMLDEFF”, the protein production is reported as “not failed”.
For “MSHRSPLRRLYPISAGGTAMRRSFAIGLTVLFLGNGAVMLAAPYPWYLAVPGVVLTGPFNDHFVRDVGAAYLACGVATALGAWNLRRHAGAVVVAATFQGLHAMIHLVTPFCGAGAPWLLLARDFPGVFLPTAATIWLAIAAFQPSEGEQK”, the protein production was “failed”.
With “MSHRSPSVTPAVSVLIPAWNAVRHLPAALDGLLSQTFQDWEAVVVDDGSQDETPALLAAYAARDARIRPLHVEHGGIVHALNHGLLHVRGRHVARMDADDTCHPERLALQCHALDNAPHLGLVASRVTFGGDAAQCGGFVRYVDWTNSLLCHEDIALGRFRESPLVHPSVMFRRELIDRFGPYANGPFPEDYELWLRWLEAGVRMEKLPEHLLVWNDPPGRLTRTHDNYAEAGFVALRTRYLARWLCAHNPQHPDVWVIGAGKASRRRARPLCEHGIRIRAWVDIDPHKIGNIVEGLPVVGREAMPAPGQGFMLAFLAGHGAAEELELFLHGAGYLPGQDYLLASLEHHHHHH” the protein production was “not failed”.
For “MSHTKIMSTDQLETQITELDNLPEHREIVTFMRRSAPLNTSQRSALEQYQDLILEYPVGDLRQHFEHPEHPLTVEIGFGMGRSLVLMAKAHPERNFVGIEVHVPGIAQCVYEAGMAGLKNLRVLDADAIQVLREMPDNSINCVQLYFPDPWQKKRHFKRRFVIHERMQLVEQKLELGGTFHAATDWEPYAEWMLDVLDNRPALENLAGKGNSYPRPEWRPQTKFERRGIESGHKINDFIFKKIGS”, the protein production was “failed”.
For “MSIDLKKRKVEEDVRSRGKNSKIFSPFRIIGNVSNGVPFATGTLGSTFYIVTCVGKTFQIYDANTLHLLFVSEKETPSSIVALSAHFHYVYAAYENKVGIYKRGIEEHLLELETDANVEHLCIFGDYLCASTDDNSIFIYKKSDPQDKYPSEFYTKLTVTEIQGGEIVSLQHLATYLNKLTVVTKSNVLLFNVRTGKLVFTSNEFPDQITTAEPAPVLDIIALGTVTGEVIMFNMRKGKRIRTIKIPQSRISSLSFRTDGSSHLSVGTSSGDLIFYDLDRRSRIHVLKNIHRESYGGVTQATFLNGQPIIVTSGGDNSLKEYVFDPSLSQGSGDVVVQPPRYLRSRGGHSQPPSYIAFADSQSHFMLSASKDRSLWSFSLRKDAQSQEMSQRLHKKQDGGRVGGSTIKSKFPEIVALAIENARIGEWENIITAHKDEKFARTWDMRNKRVGRWTFDTTDDGFVKSVAMSQCGNFGFIGSSNGSITIYNMQSGILRKKYKLHKRAVTGISLDGMNRKMVSCGLDGIVGFYDFNKSTLLGKLKLDAPITAMVYHRSSDLFALALDDLSIVVIDAVTQRVVRQLWGHSNRITAFDFSPEGRWIVSASLDSTIRTWDLPTGGCIDGIIVDNVATNVKFSPNGDLLATTHVTGNGICIWTNRAQFKTVSTRTIDESEFARMALPSTSVRGNDSMLSGALESNGGEDLNDIDFNTYTSLEQIDKELLTLSIGPRSKMNTLLHLDVIRKRSKPKEAPKKSEKLPFFLQLSGEKVGDEASVREGIAHETPEEIHRRDQEAQKKLDAEEQMNKFKVTGRLGFESHFTKQLREGSQSKDYSSLLATLINFSPAAVDLEIRSLNSFEPFDEIVWFIDALTQGLKSNKNFELYETFMSLLFKAHGDVIHANNKNQDIASALQNWEDVHKKEDRLDDLVKFCMGVAAFVTTA”, the protein production was “failed”.
With “MSIEIRKLSIEDLETLIEVARESWKWTYAGIYSEEYIESWIREKYSKEKLLNEIVRSQSNLDILFLGAFADSTLIGFIELKIIANKAELLRLYLKPEYTHKKIGKTLLLEAEKIMKKKGILECRLYVHRQNSVGFSFYYKNGFKVEDTDGSDFIMEKKY” the protein production was “not failed”.
With “MSIENLSSNKSFGGWHKQYSHVSNTLNCAMRFAIYLPPQASTGAKVPVLYWLSGLTCSDENFMQKAGAQRLAAELGIAIVAPDTSPRGEGVADDEGYDLGQGAGFYVNATQAPWNRHYQMYDYVVNELPELIESMFPVSDKRAIAGHSMGGHGALTIALRNPERYQSVSAFSPINNPVNCPWGQKAFTAYLGKDTDTWREYDASLLMRAAKQYVPALVDQGEADNFLAEQLKPEVLEAAASSNNYPLELRSHEGYDHSYYFIASFIEDHLRFHSNYLNA” the protein production was “not failed”.
In the case of “MSIEPVFILVRPQMGENIGAAARAMLNFGLGRLRIVDPRDGWPNPKAVAMASGAGRLLDHAGLFPTVAEAIRDCDYVFATTARGRELTKPVMTPERAMAHGRALTGEGRRVGILFGPERTGLENEDVALANAIVTVPVNPEFFSLNLAQCVLLLAYEWRRQHDETPPEVIDMARVDFASGLEVEKLGDHFEEKLEAAGFFFPPEKAPGMKLNLRNMWARLPLTRADVQTLHGMLRQIAWKLKQ”, the protein production is reported as “not failed”.
For “MSIEVIAVRLTKGMDLKLSLAKLVAEHDIKAGSIASCVGCISDLNLRLAGAESTLTKREPFEIVSVMGTLTPEHQHVHISVSDREGRVWGGHLLEGTVIDTTAELIIHSYSELEFTRAMDDSTGYTELQVNPSKLEHHHHHH”, the protein production was “not failed”.
In the case of “MSIEYKSEAAAVRRFPGSIVVMGVSGSGKSSVGEAIAEACGYPFIEGDALHPPENIRKMSEGIPLTDDDRWPWLAAIGERLASREPVVVSCSALKRSYRDKLRESAPGGLAFVFLHGSESVLAERMHHRTGHFMPSSLLQTQLETLEDPRGEVRTVAVDVAQPLAEIVREALAGLARL”, the protein production is reported as “not failed”.
In the case of “MSIKILSESEIKQVANSYQAPAVLFANPKNLYQRRAKRLRDLAQNHPLSDYLLFAADIVESQLSTLEKNPLPPQQLEQLNTIEPLNAKTFKRNSIWREYLTEILDEIKPKANEQIAATIEFLEKASSAELEEMANKLLAQEFNLVSSDKAVFIWAALSLYWLQAAQQIPHNSQVENAENLHHCPVCGSLPVASMVQIGTSQGLRYLHCNLCESEWNLVRAQCTNCNSHDKLEMWSLNEELALVRAETCGSCESYLKMMFQEKDPYVEPVADDLASIFLDIEMEEKGFARSGLNPFIFPAEEA”, the protein production is reported as “failed”.
